Data reported in patent US11857601B2, “Pharmaceutical composition for cancer treatment comprising fusion protein including IL-2 protein and CD80 protein and anticancer drug” (GI INNOVATION, INC., priority 2020, dated 2024).

Legend:
[1] = tested on: CD8+ T cells and CD4+/FoxP3+ Treg cells; test: Proliferation of CD8+ T cells and Treg cells in PBMCs (Exp. Ex. 10); assay type: cell-based, human; settings: for proliferation of CD4+/FoxP3+ Treg cells: compared with no stimulus and anti-CD3 antibody alone
Experimental: Human PBMCs were purchased from Allcells (Lot #3014928, USA). […] CellTrace CFSE dye was used, which was reacted with the human PBMCs under a light-blocking condition at […] for 20 minutes. The cells were labeled with CFSE by being reacted with 1 μM CellTrace CFSE dye at 37° C. for 20 minutes. CFSE not bound to the cells was removed by being reacted for 5 minutes with a culture medium having a 5-fold volume of the staining reaction solution and then by being centrifuged at 1,300 rpm for 5 minutes. The CFSE-labeled PBMCs were resuspended in the culture medium (RPMI1640 medium containing 10% fetal bovine serum, 10 mM HEPES, 100 U/ml penicillin/streptomycin, 1 mM sodium pyruvate, 55 μM 2-mercaptoethanol, 1 mM non-essential amino acid, and 2 mM L-glutamine), and then added to a 96-well microplate at 1×10^5 cells per well.
The incubated cells were examined for their degree of proliferation by measuring, with FACS analysis using anti-human CD4-PE antibody (BioLegend, USA), anti-human CD8-PE/Cy7 antibody (BioLegend, USA), and anti-human FoxP3-APC antibody (BioLegend, USA), a proportion of CD8+ T cells that had not been labeled with CFSE.

CT26 cancer cell line = test: mGI102-M61 in mice transplanted with CT26 (Exp. Ex. 18); assay type: in vivo, BALB/c mice; settings: 12 mg/kg i.v.
Experimental: The tumor size was measured daily.

[2] = tested on: effector CD8+ T cells, NK cells, Treg cells; test: Effect on mouse immune cells in spleen; assay type: in vivo, C57BL/6 mice; settings: vs PBS
Experimental: On days 1, 3, 5, 7, and 14 after the injection, the spleen tissues were removed from the mice of each group. Thereafter, for the spleen tissue, the numbers of effector CD8+ T cells, NK cells, and Treg cells were calculated with FACS analysis using respective antibodies, and proportions of effector CD8+ T cells and NK cells with respect to Treg cells were respectively calculated. The information on the antibodies used in each cell analysis is as follows:
Effector CD8+ T cell: PB anti-mouse CD3ε antibody (Biolegend, #155612; KT3.1.1), FITC anti-mouse CD8α antibody (BD, #553031, 53-6.7), PE/Cy7 anti-mouse CD44 antibody (Biolegend, #103030; IM7), APC anti-mouse CD122 antibody (Biolegend, #123214; TM-β1)
NK cell: PB anti-mouse CD3ε antibody (Biolegend, #155612; KT3.1.1), PE anti-mouse NK-1.1 (Biolegend, #108708; PK136)
Treg cell: FITC anti-mouse CD3 antibody (Biolegend, #100204; 17A2), PB anti-mouse CD4 antibody (Biolegend, #100531; RM4-5), PE anti-mouse CD25 antibody (Biolegend, #102008; PC61), APC anti-mouse Foxp3 antibody (Invitrogen, #FJK-16s, 17-5773-82).

Molecule	proportion of CD8+ T cells ([1]; anti-CD3ε 1 μg/ml, 7 days, compared with no stimulus, anti-CD3 antibody alone and GI101C1)	proliferation of CD4+/FoxP3+ Treg cells [1]	survival rate (CT26 cancer cell line; vs negative control)	Tumor growth inhibition (CT26 cancer cell line; vs negative control (hIgG4))	proportions of activated CD8+ T cells/Treg cells and NK cells/Treg cells ([2]; 3rd to 7th days after administration)	numbers of CD8+ T cells and NK cells ([2]; 3rd to 14th days after i.v. administration (3, 6 or 12 mg/kg))
GI102-M61: hCD80-Fc-IL-2 variant (3M) (R38A, F42A, E61R); SEQ ID NO: 28 (protein, Sequence of fusion protein (GI102-M61)) VIHVTKEVKEVATLSCGHNVSVEELAQTRIYWQKEKKMVLTMMSGDMNIWPEYKNRTIFDITNNLSIVILALRPSDEGTYECVVLKYEKDAFKREHLAEVTLSVKADFPTPSISDFEIPTSNIRRIICSTSGGFPEPHLSWLENGEELNAINTTVSQDPETELYAVSSKLDFNMTTNHSFMCLIKYGHLRVNQTFNWNTTKQEHFPDNGSGGGGSGGGGSGGGGSAESKYGPPCPPCPAPEAAGGPSVFLFPPKPKDQLMISRTPEVTCVVVDVSQEDPEVQFNWYVDGVEVHNAKTKPREEQFNSTYRVVSVLTVLHQDWLNGKEYKCKVSNKGLPSSIEKTISKAKGQPREPQVYTLPPSQEEMTKNQVSLTCLVKGFYPSDIAVEWESNGQPENNYKTTPPVLDSDGSFFLYSRLTVDKSRWQEGNVFSCSVLHEALHNHYTQKSLSLSLGGGGGSAPTSSSTKKTQLQLEHLLLDLQMILNGINNYKNPKLTAMLTAKFYMPKKATELKHLQCLERELKPLEEVLNLAQSKNFHLRPRDLISNINVIVLELKGSETTFMCEYADETATIVEFLNRWITFCQSIISTLT	significant increase	did not exhibit a significant increase				
GI101C1: comparative fusion protein: human CD80 fragment, Ig hinge, Fc domain; SEQ ID NO: 17 (protein, Sequence of fusion protein (GI101C1)) VIHVTKEVKEVATLSCGHNVSVEELAQTRIYWQKEKKMVLTMMSGDMNIWPEYKNRTIFDITNNLSIVILALRPSDEGTYECVVLKYEKDAFKREHLAEVTLSVKADFPTPSISDFEIPTSNIRRIICSTSGGFPEPHLSWLENGEELNAINTTVSQDPETELYAVSSKLDFNMTTNHSFMCLIKYGHLRVNQTFNWNTTKQEHFPDNGSGGGGSGGGGSGGGGSAESKYGPPCPPCPAPEAAGGPSVFLFPPKPKDQLMISRTPEVTCVVVDVSQEDPEVQFNWYVDGVEVHNAKTKPREEQFNSTYRVVSVLTVLHQDWLNGKEYKCKVSNKGLPSSIEKTISKAKGQPREPQVYTLPPSQEEMTKNQVSLTCLVKGFYPSDIAVEWESNGQPENNYKTTPPVLDSDGSFFLYSRLTVDKSRWQEGNVFSCSVLHEALHNHYTQKSLSLSLG		did not exhibit a significant increase				
mGI102-M61: mCD80-Fc-IL-2 variant (3M) (R38A, F42A, E61R); SEQ ID NO: 34 (protein, Sequence of fusion protein (mGI102-M61)) MDAMLRGLCCVLLLCGAVFVSPSHAVDEQLSKSVKDKVLLPCRYNSPHEDESEDRIYWQKHDKVVLSVIAGKLKVWPEYKNRTLYDNTTYSLIILGLVLSDRGTYSCVVQKKERGTYEVKHLALVKLSIKADFSTPNITESGNPSADTKRITCFASGGFPKPRFSWLENGRELPGINTTISQDPESELYTISSQLDFNTTRNHTIKCLIKYGDAHVSEDFTWEKPPEDPPDSGSGGGGSGGGGSGGGGSAESKYGPPCPPCPAPEAAGGPSVFLFPPKPKDQLMISRTPEVTCVVVDVSQEDPEVQFNWYVDGVEVHNAKTKPREEQFNSTYRVVSVLTVLHQDWLNGKEYKCKVSNKGLPSSIEKTISKAKGQPREPQVYTLPPSQEEMTKNQVSLTCLVKGFYPSDIAVEWESNGQPENNYKTTPPVLDSDGSFFLYSRLTVDKSRWQEGNVFSCSVLHEALHNHYTQKSLSLSLGGGGGSAPTSSSTKKTQLQLEHLLLDLQMILNGINNYKNPKLTAMLTAKFYMPKKATELKHLQCLERELKPLEEVLNLAQSKNFHLRPRDLISNINVIVLELKGSETTFMCEYADETATIVEFLNRWITFCQSIISTLT			significant improvement	significant tumor growth inhibition	significant increase	significant increase
